Source: article PMC7116848 (Nature, 2019)
Blank lines part the entries; values can stand above or below the molecule they belong to.

Tests used:
[1] = target: T1, Mgm1 (truncated s-Mgm1) (Thermochaetoides thermophila, UniProt G0SGC7); assay: isothermal titration calorimetry; assay type: binding
T1 sequence (G0SGC7 219-912): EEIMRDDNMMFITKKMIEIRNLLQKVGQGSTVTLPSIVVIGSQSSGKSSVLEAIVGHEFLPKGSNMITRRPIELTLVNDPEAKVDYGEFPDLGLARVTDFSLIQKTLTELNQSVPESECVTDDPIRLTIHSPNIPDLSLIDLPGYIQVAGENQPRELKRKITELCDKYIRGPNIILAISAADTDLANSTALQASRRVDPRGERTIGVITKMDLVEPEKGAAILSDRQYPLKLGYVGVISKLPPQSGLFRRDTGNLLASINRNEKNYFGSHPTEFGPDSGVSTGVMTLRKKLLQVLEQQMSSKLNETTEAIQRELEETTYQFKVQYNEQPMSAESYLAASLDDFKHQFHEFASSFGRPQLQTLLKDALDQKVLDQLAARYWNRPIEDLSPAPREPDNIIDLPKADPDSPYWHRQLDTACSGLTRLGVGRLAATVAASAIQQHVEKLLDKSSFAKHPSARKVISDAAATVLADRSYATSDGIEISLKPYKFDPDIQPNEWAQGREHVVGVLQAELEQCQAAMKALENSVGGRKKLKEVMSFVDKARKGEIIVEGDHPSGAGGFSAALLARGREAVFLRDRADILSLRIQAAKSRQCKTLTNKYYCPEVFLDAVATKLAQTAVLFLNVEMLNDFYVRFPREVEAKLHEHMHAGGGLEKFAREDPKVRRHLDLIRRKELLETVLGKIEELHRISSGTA

[2] = target: the molecule itself; assay: AUC
[3] = target: the molecule itself; assay: crystal structure

Kd [1]: 9 ± 3 µM
Molecule: Nc1nc2c(ncn2[C@@H]2O[C@H](COP(=O)(O)OP(=O)(O)OP(O)(O)=S)[C@@H](O)[C@H]2O)c(=O)[nH]1 [GTPγS]

B1: Chaetomium thermophilum Mgm1 (amino acids 219-912), truncated s-Mgm1 isoform (domain or fragment, UniProt G0SGC7 219-912, looked up)
chain: EEIMRDDNMMFITKKMIEIRNLLQKVGQGSTVTLPSIVVIGSQSSGKSSVLEAIVGHEFLPKGSNMITRRPIELTLVNDPEAKVDYGEFPDLGLARVTDFSLIQKTLTELNQSVPESECVTDDPIRLTIHSPNIPDLSLIDLPGYIQVAGENQPRELKRKITELCDKYIRGPNIILAISAADTDLANSTALQASRRVDPRGERTIGVITKMDLVEPEKGAAILSDRQYPLKLGYVGVISKLPPQSGLFRRDTGNLLASINRNEKNYFGSHPTEFGPDSGVSTGVMTLRKKLLQVLEQQMSSKLNETTEAIQRELEETTYQFKVQYNEQPMSAESYLAASLDDFKHQFHEFASSFGRPQLQTLLKDALDQKVLDQLAARYWNRPIEDLSPAPREPDNIIDLPKADPDSPYWHRQLDTACSGLTRLGVGRLAATVAASAIQQHVEKLLDKSSFAKHPSARKVISDAAATVLADRSYATSDGIEISLKPYKFDPDIQPNEWAQGREHVVGVLQAELEQCQAAMKALENSVGGRKKLKEVMSFVDKARKGEIIVEGDHPSGAGGFSAALLARGREAVFLRDRADILSLRIQAAKSRQCKTLTNKYYCPEVFLDAVATKLAQTAVLFLNVEMLNDFYVRFPREVEAKLHEHMHAGGGLEKFAREDPKVRRHLDLIRRKELLETVLGKIEELHRISSGTA
Kd [2]: 1 µM

B2: Seleno-methionine substituted Chaetomium thermophilum Mgm1 (amino acids 219-912) (domain or fragment, UniProt G0SGC7 219-912, looked up)
chain: EEIMRDDNMMFITKKMIEIRNLLQKVGQGSTVTLPSIVVIGSQSSGKSSVLEAIVGHEFLPKGSNMITRRPIELTLVNDPEAKVDYGEFPDLGLARVTDFSLIQKTLTELNQSVPESECVTDDPIRLTIHSPNIPDLSLIDLPGYIQVAGENQPRELKRKITELCDKYIRGPNIILAISAADTDLANSTALQASRRVDPRGERTIGVITKMDLVEPEKGAAILSDRQYPLKLGYVGVISKLPPQSGLFRRDTGNLLASINRNEKNYFGSHPTEFGPDSGVSTGVMTLRKKLLQVLEQQMSSKLNETTEAIQRELEETTYQFKVQYNEQPMSAESYLAASLDDFKHQFHEFASSFGRPQLQTLLKDALDQKVLDQLAARYWNRPIEDLSPAPREPDNIIDLPKADPDSPYWHRQLDTACSGLTRLGVGRLAATVAASAIQQHVEKLLDKSSFAKHPSARKVISDAAATVLADRSYATSDGIEISLKPYKFDPDIQPNEWAQGREHVVGVLQAELEQCQAAMKALENSVGGRKKLKEVMSFVDKARKGEIIVEGDHPSGAGGFSAALLARGREAVFLRDRADILSLRIQAAKSRQCKTLTNKYYCPEVFLDAVATKLAQTAVLFLNVEMLNDFYVRFPREVEAKLHEHMHAGGGLEKFAREDPKVRRHLDLIRRKELLETVLGKIEELHRISSGTA
modifications: seleno-methionine substituted for methionine
binding result [3]: binds
